According to patent US20230192803A1 (published 2023):

Tests used:
Ad293 STEAP3-2 = assay: flow cytometry cell binding; Ad293 STEAP3-2 chimera cells; affinity calculated from EC50
Ad293 Murine STEAP3-2 = assay: flow cytometry cell binding; Ad293 murine STEAP3-2 chimera cells; affinity calculated from EC50

EC50 (Ad293 STEAP3-2): 20.2 nM | EC50 (Ad293 Murine STEAP3-2): 28.2 nM
B1: 40A3 scFv-Fc (Fc fusion)
scFv: EIVMTQSPATLSVSPGERATLSCRASQSVNSNLAWYQQKPGQAPRLLIYGASTRATGIPARFSGSGSGTEFTLTISSLQSEDFAVYYCQQYNNWPFTFGPGTKVDIKGGGGSGGGGSGGGGSGGGGSQVQLQQSGPGLVKPSQTLSLTCAISGDSVSRNSAVWNWIRQSPSRGLEWLGRTYYRSKWYNDYAVSVKSRITINPDTSKNQFSLQVNSVTPEDTAVYYCARGLLQNNFYYYMDVWGKGTTVTVSS
